# Literature values in PMC13292882.
# What was measured:
# PCNA (Homo sapiens) = PCNA (Homo sapiens) (UniProt P12004); details: cited from earlier work
# RPA (Homo sapiens) = RPA (Homo sapiens) (UniProt P27694); test: competition peptide displacement; details: cited from earlier work
# Sequence of RPA (Homo sapiens) (P27694 2-616, chain 1 of 3): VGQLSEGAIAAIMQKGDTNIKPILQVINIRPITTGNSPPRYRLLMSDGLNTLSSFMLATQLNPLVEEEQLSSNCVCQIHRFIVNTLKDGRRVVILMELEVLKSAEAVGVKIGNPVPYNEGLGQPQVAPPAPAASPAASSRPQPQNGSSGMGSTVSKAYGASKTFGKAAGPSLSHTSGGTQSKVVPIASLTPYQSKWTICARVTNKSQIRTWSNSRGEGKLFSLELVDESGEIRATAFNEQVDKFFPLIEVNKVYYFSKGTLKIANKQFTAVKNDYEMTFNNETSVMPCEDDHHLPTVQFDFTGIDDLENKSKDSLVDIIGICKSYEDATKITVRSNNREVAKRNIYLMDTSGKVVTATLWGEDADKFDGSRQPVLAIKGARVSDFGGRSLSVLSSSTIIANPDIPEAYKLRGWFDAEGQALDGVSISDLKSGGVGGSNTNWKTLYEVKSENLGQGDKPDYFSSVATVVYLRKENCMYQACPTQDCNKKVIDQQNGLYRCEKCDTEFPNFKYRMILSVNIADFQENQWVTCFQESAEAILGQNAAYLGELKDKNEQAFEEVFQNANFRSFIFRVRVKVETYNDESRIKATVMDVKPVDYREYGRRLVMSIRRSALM
# Sequence of RPA (Homo sapiens) (P15927 whole entry, chain 2 of 3, further chain): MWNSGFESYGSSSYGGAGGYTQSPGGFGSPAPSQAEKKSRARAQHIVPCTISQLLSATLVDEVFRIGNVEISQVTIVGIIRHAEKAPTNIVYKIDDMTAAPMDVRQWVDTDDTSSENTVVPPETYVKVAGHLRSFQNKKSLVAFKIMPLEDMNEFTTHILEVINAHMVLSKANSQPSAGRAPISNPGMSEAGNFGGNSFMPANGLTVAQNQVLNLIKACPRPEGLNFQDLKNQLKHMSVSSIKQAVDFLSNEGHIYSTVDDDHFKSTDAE
# Sequence of RPA (Homo sapiens) (P35244 2-121, chain 3 of 3, further chain): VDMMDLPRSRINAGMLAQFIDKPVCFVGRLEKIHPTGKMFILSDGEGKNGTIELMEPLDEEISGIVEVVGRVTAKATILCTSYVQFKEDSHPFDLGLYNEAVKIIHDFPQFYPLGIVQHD
# Sequence of UNG2 (P13051 whole entry): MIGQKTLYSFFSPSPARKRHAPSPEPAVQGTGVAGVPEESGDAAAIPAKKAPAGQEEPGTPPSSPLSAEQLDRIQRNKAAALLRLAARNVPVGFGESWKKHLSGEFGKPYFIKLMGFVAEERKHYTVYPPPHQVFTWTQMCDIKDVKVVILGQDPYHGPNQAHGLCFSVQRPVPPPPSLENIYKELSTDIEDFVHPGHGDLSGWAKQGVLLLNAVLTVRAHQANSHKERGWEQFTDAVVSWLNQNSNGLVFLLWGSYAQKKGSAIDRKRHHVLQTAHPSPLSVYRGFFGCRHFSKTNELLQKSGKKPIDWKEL
# Sequence of PCNA (Homo sapiens) (P12004 whole entry): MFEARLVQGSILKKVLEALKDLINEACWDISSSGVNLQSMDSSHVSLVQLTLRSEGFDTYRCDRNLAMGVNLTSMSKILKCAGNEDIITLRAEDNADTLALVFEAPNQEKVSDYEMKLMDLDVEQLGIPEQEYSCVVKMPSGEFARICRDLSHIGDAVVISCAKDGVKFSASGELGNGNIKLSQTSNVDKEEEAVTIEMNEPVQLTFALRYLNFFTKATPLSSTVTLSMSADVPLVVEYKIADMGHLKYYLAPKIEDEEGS
substance,measurement,setting,value
UNG2 (from UniProt P13051),Kd,PCNA (Homo sapiens),1000 nM
same,Kd,RPA (Homo sapiens),3000 nM
